What all share (assay): cell-based or functional assay
The target of assay [1] is T1, human GLP-1 receptor (GLP-1R), expressed on CHO-K1 cells (human, UniProt P43220 24-463).
The target of assay [2] is T2, human glucose-dependent insulinotropic polypeptide receptor (GIPR), expressed on CHO-K1 cells (human, UniProt P48546 22-466).
T2 sequence (looked up): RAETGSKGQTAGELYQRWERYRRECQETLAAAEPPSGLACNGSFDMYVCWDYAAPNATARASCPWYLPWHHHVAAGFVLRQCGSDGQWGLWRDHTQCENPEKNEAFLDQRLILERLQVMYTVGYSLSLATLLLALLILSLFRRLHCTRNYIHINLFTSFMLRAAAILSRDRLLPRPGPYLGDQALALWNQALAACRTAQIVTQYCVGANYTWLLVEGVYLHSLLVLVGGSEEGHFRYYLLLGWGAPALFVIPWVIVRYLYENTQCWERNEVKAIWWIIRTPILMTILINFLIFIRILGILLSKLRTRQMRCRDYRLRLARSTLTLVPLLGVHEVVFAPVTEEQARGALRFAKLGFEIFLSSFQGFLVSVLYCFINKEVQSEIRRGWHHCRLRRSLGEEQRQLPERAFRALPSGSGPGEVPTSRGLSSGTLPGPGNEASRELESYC

Assay [3] concerns the target T3, human glucagon receptor (GCGR), expressed on CHO-K1 cells (human, UniProt P47871 26-477).
The target of assay [4] is T2, human glucose-dependent insulinotropic …. The source holds these as a separate data set.
The target of assay [5] is T3, human glucagon receptor (GCGR), …. The source holds these as a separate data set.
The target of assay [6] is T1, human GLP-1 receptor (GLP-1R), …. This is another data set of the same source.
For assay [7], the target named is T2, human glucose-dependent insulinotropic …. The source holds these as a separate data set.
Assay [8] concerns the target T3, human glucagon receptor (GCGR), …. The source holds these as a separate data set.
Assay [9] deals with T1, human GLP-1 receptor (GLP-1R), …. This is another data set of the same source.
In assay [10] the target is T2, human glucose-dependent insulinotropic …. This is another data set of the same source.
Assay [11] addresses T3, human glucagon receptor (GCGR), …. The source holds these as a separate data set.
Assay [12] has as its target T1, human GLP-1 receptor (GLP-1R), …. The source holds these as a separate data set.
The target in assay [13] is T2, human glucose-dependent insulinotropic …. This is another data set of the same source.
In assay [14] the target is T3, human glucagon receptor (GCGR), …. This is another data set of the same source.
In assay [15] the target is T1, human GLP-1 receptor (GLP-1R), …. This is another data set of the same source.
For assay [16], the target named is T2, human glucose-dependent insulinotropic …. This is another data set of the same source.
In assay [17] the target is T3, human glucagon receptor (GCGR), …. The source holds these as a separate data set.
Assay [18] deals with T1, human GLP-1 receptor (GLP-1R), …. This is another data set of the same source.

Numbered stars: 1 amine (or outer) side, 2 acyl side, 3 side chain; on linkers, the order of the positions; unused ones are H or OH. Square brackets hold non-standard residues; d marks the D form. Side chains are listed from the residue outwards. Ends that are not written are not given here. C18 = C18 fatty acid (C16-C22 fatty acids conjugated via γGlu/8-amino-3,6-dioxaoctanoic acid spacers); γGlu = O=C(O)[C@H](CCC(=O)[*:2])N[*:1]; AEEA = NCCOCCOCC(=O)O; Aib = CC(C)(N)C(=O)O; MAL = maleimide

T3 sequence (P47871 26-477): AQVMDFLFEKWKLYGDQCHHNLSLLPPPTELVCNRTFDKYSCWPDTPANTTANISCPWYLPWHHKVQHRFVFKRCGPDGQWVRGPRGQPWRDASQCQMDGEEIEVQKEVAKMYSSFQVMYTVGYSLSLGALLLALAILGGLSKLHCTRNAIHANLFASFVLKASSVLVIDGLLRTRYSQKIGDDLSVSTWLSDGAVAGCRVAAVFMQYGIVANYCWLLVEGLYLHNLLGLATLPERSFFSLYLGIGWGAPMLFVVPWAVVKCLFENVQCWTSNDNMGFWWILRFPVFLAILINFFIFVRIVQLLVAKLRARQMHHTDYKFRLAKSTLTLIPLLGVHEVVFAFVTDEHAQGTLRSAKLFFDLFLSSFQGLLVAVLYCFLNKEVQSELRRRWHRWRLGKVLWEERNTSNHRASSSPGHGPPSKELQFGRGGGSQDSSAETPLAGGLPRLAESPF

B1: Peptide No. 57 (with C-terminal cysteine) (peptide)
peptide: H[Aib]QGTFTSDHSKYLDGAWAADFVMWLLDGGPSSGAPPPSC-NH2
Consider B1, for which the “Percentage change in EC50 relative to GLP-1 at human GLP-1R (%)” value in assay [1] was determined as 1%. The “Percentage change in EC50 relative to GIP at human GIPR (%)” value in assay [2] turned out to be 0%. Besides, in [3], the “Percentage change in EC50 relative to GCG at human GCGR (%)” value was determined as 1%.

B2: Peptide No. 12 (with C-terminal cysteine) (peptide)
peptide: H[Aib]QGTFTSDWSKYLDQQMAQDFVDWLINGGPSSGAPPPSC-NH2
For the molecule B2, the “Percentage change in EC50 relative to GLP-1 at human GLP-1R (%)” value in assay [1] worked out at 303%. Besides, the “Percentage change in EC50 relative to GIP at human GIPR (%)” value in [2] was 4%. The “Percentage change in EC50 relative to GCG at human GCGR (%)” value in [3] turned out to be 1200%.

B3: Peptide No. 5-1A (peptide)
peptide: Y[Aib]QGTFTSDYSKYLDYMMARDFVQWLIEGGPSSGAPPPSC-NH2
modifications: not fully specified (residue 40)
Take B3: the “Activity relative to GLP-1 (%)” value came to 1% in assay [4], 13% in assay [5] and 100% in assay [6]. For the same molecule, the “Relative % to native ligand” value in assay [7] was 1%; in [8], 24%; in assay [9], 187%. The “EC50 (nM), cAMP assay” value in [10] is 53.9 nM; in [11] it was 0.576 nM; in [12] it was 0.269 nM. Moreover, the “Ratio vs. GLP-1R” value is 1 in assay [13], 13 in assay [14] and 100 in assay [15]. Also, the “Relative % to non-lipidated peptide” value in assay [16] amounted to 11%; in [17], 0%; in assay [18], 159%.

B4: Peptide No. 5-2A (peptide)
peptide: Y[Aib]QGTFTSDYSKYLDYMMQRDFVQWLIEGGPSSGAPPPSC-NH2
modifications: not fully specified (residue 40)
As to B4, the “Activity relative to GLP-1 (%)” value worked out at 2% in assay [4], 0% in [5] and 100% in [6]. The results for the “Relative % to native ligand” value in assay [7], in [8] and in assay [9] were 3%, 1% and 145%, respectively. Further, the “EC50 (nM), cAMP assay” value in assay [10] was found to be 24.7 nM; in [11] it was 23 nM; in [12], 0.348 nM. For the same molecule, the “Ratio vs. GLP-1R” value in assay [13] worked out at 2; in [14], 0; in assay [15], 100. For the same molecule, the “Relative % to non-lipidated peptide” value in assay [16] was determined as 0.4%; in assay [17], 1%; in assay [18], 29%.

B5: Peptide No. 18 (with C-terminal cysteine) (peptide)
peptide: H[Aib]QGTFTSDHSWYLDKWTAHDFVQWLINGGPSSGAPPPSC-NH2
In the case of B5, in [1], the “Percentage change in EC50 relative to GLP-1 at human GLP-1R (%)” value came to 40%. In assay [2], the “Percentage change in EC50 relative to GIP at human GIPR (%)” value amounted to 0%. Also, the “Percentage change in EC50 relative to GCG at human GCGR (%)” value in [3] came out at 1%.

B6: Peptide No. 5-5A (peptide)
peptide: H[Aib]QGTFTSDYSKLLDYMMQRDFVQWLLEGGPSSGAPPPSC([MAL-AEEA-AEEA-γGlu-C18])-NH2
Consider B6, for which the results for the “Activity relative to GLP-1 (%)” value in assay [4], in assay [5] and in [6] were 2%, 0% and 100%, respectively. In addition, the “Relative % to native ligand” value is 14% in assay [7], 1% in [8] and 673% in assay [9]. Also, the “EC50 (nM), cAMP assay” value was determined as 5.17 nM in assay [10], 9.43 nM in [11] and 0.0747 nM in assay [12]. In addition, the “Ratio vs. GLP-1R” value in assay [13] came to 2; in assay [14], 0; in [15], 100. Also, the “Relative % to non-lipidated peptide” value is 3% in [16], 1% in [17] and 40% in assay [18].
